experiment: soluble on expression in E. coli; label from the status in PepcDB or PDB records

| Sequence | soluble on expression in E. coli |
| --- | --- |
| MISVTFRQILGLVSLLCATWLYSQCRHIWLLAQDDFNEQFTNFLGEKWWSTDQLELCDDETKDTKWQKNDSICITYVYNMLPVDMEIISWAPTLVIYRNLMSPRQTASFLNFIEQRDLEIQKTSDFGTSIETTHRRANGSFIPPEDSNVTVEIKMQAQKRIPGLNLTVAEHFSALSYLPGGHYAVHYDYLDYRSKQDYDWWMNKTGNRIGTLIFVLKPAEKGGGTVFPSIGSTVRANAGDAFFWFNAQADEEKEMLSNHGGCPIYEGRKVIATIWIRAYNQRILPMAPAGSSIHASWLIPSLSNRFRPEMQTQSPVPN | not soluble |
| MITFKPTRNIDLIEAVGNHPDIIAGSNNGDGYDYKPECRYFEVNVHGQFGGIVYYQEIQPLTLDCHAMYLPEIRGFSKEIGLAFWRYILTNTTVQCVTSFAARKFRHGQMYCAMIGLKRVGTIKKYFKGVDDVTFYSATREELIDFLNHGR | not soluble |
| MITSYEATVVTTDDIVHEVNLEGKRIGYVIKTENKETPFTVVDIDGPSGNVKTLNDGVKKMCLVHIGKNLPAEKKAEFLATLIAMKLKGEI | not soluble |
| MITVVIADRLGKGQNVAKGVEQAGGRAVVVPGMGADMRLGDVMQQEKADLGISFCGSGGAGALTAATKYGYPERHGMRSIEEGVTAINDGKTVLGFGFMDQEELGKRVTEAFIKKHGA | not soluble |
| MIVFKAENLSVGYNGVKAVSNINFSAKQGEIICLLGPNGAGKTTIIRTLSGLLPPIEGEIHINGKSLSTINKKLLAQTLSVVLTEKPSFDVMTAFDVVSLGRFPHTGFFGTITKEHEIKVVEALKTVGALNLIDKYFHILSDGERQKVMLARALVQEPQIIILDEPTTHLDINHKIELLNTLKNLSRTAKLTVILSLHEIDLALKYCDKVMLVENKKVLSFGSPETTVNGETINKLYGIKNASFNPITSSIELKNSEKSNIYVIGGCGFGTPIYRLLSKYNLGFSTGILHENDIDYETAKTMSLRLQSEKPFQKISKISFEKALAAVASSDIIIDSGFPIGETNEKNLNLLNYAVEKNKRVITFRKYFNSTMSYCSNKDALIDFILRLEHHHHHH | not soluble |
| MIVKTEEELQALKEIGYICAKVRNTMQAATKPGITTKELDNIAKELFEEYGAISAPIHDENFPGQTCISVNEEVAHGIPSKRVIREGDLVNIDVSALKNGYYADTGISFVVGESDDPMKQKVCDVATMAFENAIAKVKPGTKLSNIGKAVHNTARQNDLKVIKNLTGHGVGLSLHEAPAHVLNYFDPKDKTLLTEGMVLAIEPFISSNASFVTEGKNEWAFETSDKSFVAQIEHTVIVTKDGPILTTKIEEE | soluble |
| MIVWSVANQKGGVGKTTTTITLAGLLSQQGKRVLLVDTDPHASLTTYLGYDSDGVPASLFDLFQLREYNEASVKPLILNTDIQGIDLIPAHMSLATLDRVMGNRSGMGLILKRALLALRHVYDYVLIDCPPILGVMMVNALAASDRILIPVQTEFLAMKGLERMVRTLAIMQKSRSREFKVTIVPTMYDKRTRASLQTLNQLKKDYPDKVWTSAVPIDTKFRDASLQRLPASHFAEGSRGVFAYKQLLLFLERLAIDE | not soluble |
| MIWNEHHECMGRDQLASLQGERLRQMVERIYYNVPFYRNKLQEMGIEPGDIRSIDDLKKLPFTTKQDLRDNYPFGLFAVPQQDIVRFHASSGTTGKSTVVGYTHNDIMMWSEVVARSLTMAGVTKHDIIQVAYGYGLFTGGLGLHYGAEKIGASVIPISGGNTKKQLQLLEDFGSTAIACTPSYAAYLGEAIMEEKLDRSKIKLKAGIFGAEPWTEEMRSQIQQLLGIKAYDIYGLSEVIGPGVSMECSIQHGMHVFEDHFIPEIINPETGEVLPYGELGELVFTAVTKEALPLLRYRTRDLTRLHVERCDCGRTLVRMEKCVGRSDDMLIIRGVNVFPSQVESVLLEMSETKPHYLLVVDRQNNLDTLEIQVEVEDQFFSDEVKELEGLRKRISGNLTSILGLHANVRLVEPGTIERSQGKAQRVVDKRKLNEHKETP | not soluble |
| MIYKSIAERLRIRLNSADFTLNSLLPGEKKLAEEFAVSRMTIRKAIDLLVAWGLVVRRHGSGTYLVRKDVLHQTASLTGLVEVLKRQGKTVTSQVLIFEIMPAPPAIASQLRIQINEQIYFSRRVRFVEGKPLMLEDSYMPVKLFRNLSLQHLEGSKFEYIEQECGILIGGNYESLMPVLADRLLARQMKVAEHTPLLRITSLSYSESGEFLNYSVMFRNASEY | not soluble |
| MKAARQQAIVDLLLNHTSLTTEALSEQLKVSKETIRRDLNELQTQGKILRNHGRAKYIHRQNQDSGDPFHIRLKSHYAHKADIAREALAWIEEGMVIALDASSTCWYLARQLPDINIQVFTNSHPICHELGKRERIQLISSGGTLERKYGCYVNPSLISQLKSLEIDLFIFSCEGIDSSGALWDSNAINADYKSMLLKRAAQSLLLIDKSKFNRSGEARIGHLDEVTHIISDERQVATSLVTA | soluble |
| MKADHPEDIEDIKELIAQTENEQVEFKETTGQLERGMETLCAFLNGEGGTVLFGITDKGKIIGQEVADVTKRSIAEAINRLEPTANVHVFYIPLPDSSKKIIALHVENSRDNRPFCYKSRPYYRVESVTSAMPQAVYNQLLIIRDEAKYRWELFENPKLSLQDMDENEILKTVRLGIECGRLPENTGNNLSIILEKFGLLVNGVLNNAAAVLFANRELIEYPQCLLRLARFKGTDKMVFMDNQRVQGNLFQLLDSAMTFIFKHLSLSGTTEALEREEHLTIPYKAIREGIINSLCHRQFRTPGGSVGIAIYDDRVEIENPGTFPHGWDMERMKSEHCSEPRNPLIANVLYKRKLLENWGRGISLMTEECRKANLPEPEFKLANGFVILVFRYGTNNHTSTMQVPHKHHISTIQVQSLLNIMEYNTYSVKEMMELLELKNRSYFSKEYLKPAVETGVIEPIFPDQPKSPKQKYRLTEKGKALLEKRLEHHHHHH | soluble |
| MKAKLVSLLAQANIKISDQQIQQLINLVNLLNKWNKAYNLTSVRDPQEMLVKHILDSLVVSPYLQGDRFIDVGTGPGLPGLPLAIINPSKQFVLLDSLGKRISFIRNAIRELRLTNVTPVLSRVEEYQPEDKFDGVLSRAFASLKDMTDWCHHLPKENGYFYALKGIYQEDEINELNKKYTIQKVIELSVPELIGERHLIVLRLEHHHHHH | not soluble |
| MKALLLLVLPWLSPANYIDNVGNLHFLYSELCKGASHYGLTKDRKRRSQDGCPDGCASLTATAPSPEVSAAATISLMTDEPGLDNPAYVSSAEDGQPAISPVDSGRSNRTRARPFERSTIRSRSFKKINRALSVLRRTKSGSAVANHADQGRENSENTTAPEVFPRLYHLIPDGEITSIKINRVDPSESLSIRLVGGSETPLVHIIIQHIYRDGVIARDGRLLPGDIILKVNGMDISNVPHNYAVRLLRQPCQVLWLTVMREQKFRSRNNGQAPDAYRPRDDSFHVILNKSSPEEQLGIKLVRKVDEPGVFIFNVLDGGVAYRHGQLEENDRVLAINGHDLRYGSPESAAHLIQASERRVHLVVSRQVRQRSPDIFQEAGWNSNGSWSPGPGERSNTPKPLHPTITCHEKVVNIQKDPGESLGMTVAGGASHREWDLPIYVISVEPGGVISRDGRIKTGDILLNVDGVELTEVSRSEAVALLKRTSSSIVLKALEVKEYEPQEDCSSPAALDSNHNMAPPSDWSPSWVMWLELPRCLYNCKDIVLRRNTAGSLGFCIVGGYEEYNGNKPFFIKSIVEGTPAYNDGRIRCGDILLAVNGRSTSGMIHACLARLLKELKGRITLTIVSWPGTFL | soluble |
| MKCKDDMSAVLTAEQALKLVGEMFVYHMPFNRALGMELERYEKEFAQLAFKNQPMMVGNWAQSILHGGVIASALDVAAGLVCVGSTLTRHETISEDELRQRLSRMGTIDLRVDYLRPGRGERFTATSSLLRAGNKVAVARVELHNEEQLYIASATATYMVGLEHHHHHH | soluble |
| MKDELIKKLSRPEWDFQYDSEKEVLRIEQKDSKKGINVSLPGVVAKWEVNKEKAIEEVAYYVQEALIAMHKEENSGAKILPVIRSTSFPKQAEEGNPFIMTDHTAETRIYYALDSNKTYRLIDERLLQKLELTEQQVREMALFNARSLGYEFKQDTVAGNTFYFLNTNDGYDATRILNESLLQSMREKISGDMVVAVPHQDVLIIADIVNEIGYDIIAQMTMKFFAEGHVPITSLSFVYEDGEFEPIFILAKNRKKTDGKEKG | not soluble |
| MKDFNQRFRDLHKLRQRARKENHEQVVEEDRRSKLPKNHEAKKERDQWQVKELQDRKAAEDKGLDYERVRSLEMSADVTEKLEQKRKRKKNPDQGFTSYEDMTLRQHTRLTAALDPDLDSYKKMRECVGGEQFYPTADTLIHGNHYPTTAAMDKLTKDVHGQVKRREQYHRRRLYDPDAPIDYINEKNKKFNKKLDKYYGKYTEDIKDDLERGTAI | not soluble |
| MKDVILVIYSLIKMTKLRSCPLDDCNSSETYFQLDKHLKNEHDGLVLLMVDPQSQWRCEQMKRHVEYVDLMSATEIPHIAEVVHHQLPYIDTLIIFRCLS | soluble |
| MKEESEESSMDHHSYTTEEVAKRLKVSKLTVYDLIKKGELPSYRVGRQMRIDAADLDQYIKQMKTGKVQVNPVKNDGSSILNTCIISGQELTLDMLAKRIENRLPSSNVLRAYQGSLTSLVKMYQGEGSIVSLHLFDGETGTYNIPYVKRILVGQPCLMINLLSRNVGFYVQKGNPKKIKTWADISGSTIKFVNREKGSGIRVLVDEQLRILKLNKADISGYEWEESNHLGVATQVANGKADVGVGSEKFSQIVNVDFIPIMKEQYDLVILKNKENEELIEVVKDILQSEEFHNELNAIGGYDITKTGQIVYEIK | not soluble |
| MKEFSIMIQGTISSWTEDTMSLLTVEKLGHTFGDRTLFKDVSMRLLAGEHVGLVGANGVGKSTFMNIITGQLIHDQGRVEWTPGTHYGYLDQHTVLTPGRTIRDVLADAFLPLFEKEKALNEVTEKMGTATPEELEELLEQMAEIQDALEAGGFYLLYMKIEEAARGLGIDAIGLDRDVSALSGGQRTKVLLAKLLLEQPEVLLLDEPTNYLDVEHIHWLTNYLKEYPHAFLLISHDTEFMNKCVDVIFHLEFTKMTRYTATYEKFLELAEINKNQHINAYEKQREFIKKQEDFIAKNKARYSTTGRAKSRQKQLDRMELIDRPETAIKPEFSFKESRASSRFVFEGENVEIGYTHPLLPKLSMTIERGEKIAIVGCNGVGKSTLLKTILGKIKPLSGKTSLGDFLEPAYFEQEVKADNITPIDDVWNTFPGLDQHQIRAMLAKCGLKNEHISRPLSQLSGGEQAKVRLCKLMGEESNWLLFDEPTNHLDVTAKAELKKAMKAYKGTILLVCHEPDFYEDWITKVWDVEEWSQNSK | not soluble |
| MKEIKVNELTDNLFETISKEWMLVTAGTKDKFNTMTANWGGAGFLWNRPVAFIFIRPERYTFDFIEQNDYLTLSFLGEEHKEIHKICGSKSGRDMDKVKATGLSPLFTENGSITFEQARLTFECKKLYADLIKPGNFIDKSITDRWYGESHGGFHKMYVVEIVNVLSR | soluble |
| MKEKEHQSIEWKESWQDEYLKWICGYANAYGGTIYIGTDDDGNVVGIDNARDLLERIPNKITDTMGIIVDVNLLYKGELEYLQIIVDKYPSLISFRGKYYYRSGSTMREITGKELERALLKTQGRTWDGVPLPKLTVADLKQDAIQLFKDKAVKRGRLTKEEVSVEDTILMDNLHLIDEDGYLIRAAMLAFYKDPEKWVTGSYIKIGYFGKSDSDLVYQDEVHGPLIEQVDKTVDLVYTKYMKALIDYEGVQRIEQFMFHKDAFREILLNAVVHKDYSSCNPIQISVYEDKIYIWNDGEMPPNLDSTDKLFMKHSSKPYNPKLANVFFKSGMIEAWGRGFEKIREACALYDGPLPEYEINEAGIMVLCKACDKYLGLLRNDGQHHGQCDQEGDHDEEQDIMRQIIAFCMEPKTASEIMQKFNLERSYFRRHYLNKMLKTGKLQRTEPDKPKSKNQKYYS | not soluble |
| MKEKIPFYNEKEFHDMMKKTKKGTFSGWYIIDKDNKSVEFSGNFNRQFKLNKPVIPVNTEYVTRKEFNEYKDSNDQRLTKIETTLAAQGEQIRIQGEQIKELQIEQKAQGETLKLILQTLQKMSDRLNKMDVRLDKLESKLEHHHHHH | not soluble |

From the DeepSol protein solubility set
